# Experiment: label from the status in PepcDB records
row,Sequence,protein production
1,MMRRVSLGSRLALLFAACTATVSLGAGLLFSRASEQHFVELDQQLLDSRLSLFRTQLAGVSTADELQARLPALRDELSHQADLALRISASNGATWFESRSGLPHAAQATGLATLHAPGIDYRSLSVPLTQGAMQSPRLTLYLDITHHQHFLQGMQRLIWLTVGLSALITALLGAWAARSGLRPLRQMGQVAASVSARSLTTRLPVAQMPEELAELASSMNAMLQRLDDAFQRLSAFSADIAHELRTPLSNLLTHTQVTLTRPRSLEEYREALHGNLEELQWMAQMINDMLFLAKADHGLLVPGDAPLALHDEVDALLEYYAPLAEDSDVQMLREGEAVLHGDQHMLRRALSNLLDNAMRFTPAGGQIKVTLGPGPTINVANTGLAIDPAALPRLFDRFYRVDPARREGSSEHAGLGLAITRSIVQAHGGCIRAECEGGWTRFVIEFTQDR,failed
2,MMSAQRVVRTVRTARAISTALAVAIVLGTGVAWSSVRSFEDGIFHMSAPSLGHGGDDGAIDILLVGLDSRTDAHGNPLSAEELATLHAGDEEATNTDTIILIRVPNNGKSATAISIPRDSYVAAPGLGKTKINGVYGQTRETKRAGLVQAGASPTEAAAAGTEAGREALIKTVADLTGVTVDHYAEIGLLGFALIADALGGVDVCLKEPVYEPLSGADFPAGRQKLNGPQALSFVRQRHDLPRGDLDRVVRQQAVMAALAHRVISGQTLSSPATLKRLEQAVQRSVVLSSGWDIMDFVRQLQKLAGGNVAFATIPVLDGAGWSDDGMQSVVRVDPRQVQDWVVGLLHEQDQGKTDELAYTPAKTTANVVNDTDINGLAAAVSKVLSSKGFTTGSVGNNDGDHVPGSQVRAAKADDLGAQQVAKELGGLPVVADASIAPGSVRVVLANDYSGPGSGLGGSDPNGVVSPARAFNLGSADDTTPPPSPILTAGSDAPECIN,failed
3,MMSQISLADLNAADKADFVAALANVVEYSPWIAEKLAGQRPFTGINQLHAALMAAIQSAEPDVQLALIRAHPDLANKTQRAAGLTAESTDEQNSAGLDRLSDAEYAAFERVNNAYREKFGFPYIVCVRRHTKDSVLRDFETRLLNIAKTETRRAIEEIGRISALRLDQLVVADDKLKVHGRLSTHVLDNHAGKPAPGIPVELIELASLGESRVIARTVTNADGRTDQPLIGGRPLPIGRYELRFRVAKYYAERNVPLSEPPFLDEIPLRFAISEPENHYHVPLLVTPWSYATYRGS,failed
4,MMTGRKRGMIMSRRIITIGRQYGSNGRRIAKKLSEKLGIHYYDKELIKLASEQNDISYDELVKVDEKRANPWRYPVEDPAQMESRFRFEPMNDVLFYTQAQIITRLADTEDCIIVGRCANDILKSRPTSRSIFIHAPLDYRLQTVMERTSLEEKEALSLIKKVDKQRKFYYNYYTDKKWEEMSQYDLCLDSSAMSEDEILNVLTALYESIL,failed
5,MMTKKDLPLRQLLKLRNSWIAWVVFLVSVVATVLLWQVSIRLVEDRTEARFRTQSLQLKTAIEERLLNYEQVLAGSAGLFAVTGKVTRDQWKEYVDNVDINRYYPGIEGIGYVERIGVREMADHIASVRAEGLYNYLVKPLGTGPYYYPMVYLEPGTERNRKALGYDAFSDPIHRTAMEQARDDAIPTVTGKVVLVQESVAEDQAGFLMYYPVFQGGEIPEIRAERRMMLAGYVFSAFRMNNLIDGIVGLISPFLDVRIYDSGVVARDTLMYGSNLGSLDNEFSFEMSQTIRHGGREWLLQTRSTPAFDYLAADPRPPIVLGSGLAISLLLWLFVLALIRSRLIAQVSAGRYRAITEGAANVTLVMDRRGRPLYASPSSRDILGFDPDKVEALEFEKLVHMDDWSHLQRGFEESMASPGKQMPVVRARVRDADGQWRDMEGTFTAMLSVPGVNGVVLSLRDLTQLKAAQSELHRLAFYDPLTGLANRQLFRDRLNHVVRRSRRSGEAAALMFLDLDGFKRINDTLGHDAGDELLRQVAQWLEGCVREEDSVARLGGDEFVVLLSRISGSEAAGKVAENILRRLCQRIRLNDHEVGVTVSIGITMIPHDSEDAGALMKYADLAMYRAKELGRNTYQFFTPAMNIQAARRLLQQEELATALDGDRFVLHYQPKVDLATQRVIGVEAFLRWHHPEKGLVSAQQFITLAEETGLIIRLGELALRQACIQVQALERAGFESLKMAVNFSVRQLTDSGFLDMIRRVITETGVSPERLELEMPAELLNEDPRMLRELLVSLNDLGVCLILDDFGTGSCSLVALQQLPLDVIKIDHRFIRDIPYNVSATDVASAVIALAHKLHLTVVAEGVETLQQLTFLKSAGCAQCQGNLFSYPLDEDALIGFLIRQYEKPLIS,failed
6,MMTLVILLLFLLFCVLVFWISITFSIKYVLIFTAFLFSGLLVYYSFLTIAGLIHRNSKRKDRTLEHYPSVDIFIPAHNEGVVIKDTLEAMAKIEYPGKLTIYLLNDNSQDETPEIGDDFDKAYAHIRHIRVPPGEPKGKSRVLNYGLSISDGEYFCVYDADNQPEPHALRMLVEHAETTEDAVGAVGHVRTVNEKRNWLTRMISLEFQIFQLLMQSGRWLLFQTGSLTGTNMLLRRSALEELGGYDPYAIAEDAELTLRITQKGYLLPIVPESVTWEQEPEHLKILIKQRTRWLQGNLYILEKMFSSLSFFKGKLLVHSLQQVLVYVVFWLFLIISNVWFVIGLLGIFQIQYSIPLLFMWYVAYITYVSQLFSAQSVERTFTPTNIFISVIMYFTYAQLFTYLFIRSLILYLRAKSKKQVIGWDKTVRFKKDK,failed
7,MMVAVIPAYNEEKNIISVLKDLSDINIDVIVVDDGSTDKTKTIINEFLEKNEFKNKIFPIFKEKNEGKSKALEDGTNYAINLNYDAIAYLDGDYQHKPSDIIPMYEKMKSENADAVFGIRKYKHIPFHRQFSNFLASVIMSITVSVFSGNFHIFRDIQCGFRIIKSEFLKNSYFGDGYSVEHLIALQLAKKNAKITEEYVTIDYHNDAISYITTKKILDVVKEVAKYVLSKH,failed
8,MMVETATVVQYQNGKALVRCSVKTACGNCGAKADCGTQLLSSLVKERVPHFELSVNMPLVAGDMVKIGLPEQTLLWSIFWIYVVPLMVLIGSAVGFTQLFANELVVVFMMFICTSMTFFSIKKIIDKKQLSQLNPIFLGRVE,failed
9,MMVPHLTTALTGPLLTLEKRLLDNMPRIEHWFRSQWQEYGAPFYASVDLRNAGFKLAPVDTNLFPGGFNNLNPDFLPLCIQAAMVAVEKICPDARRLLLIPENHTRNTFYLRNVHALTHILRQAGLEVRIGSIAPEITAPTFLETHDGHSILLEPVRRKANRLELDNFDSCAILLNNDLSGGIPDILQGLEQSLIPPLHAGWATRRKSNHFTAYDRVVEEFAPLIDIDPWLLNPYFDTCGGLDFHARLGEEQLAEKVDSLLAKIRRKYAEYGVKQEPFVIVKADAGTYGMGIMTVKSADDVRDLNRKQRNKMSVVKEGLKVSEVILQEGVYTFEHLKDAVAEPVIYMMDHFVVGGFYRVHTSRGADENLNAPGMHFEPLTFETPCSTPDCAGAPDAAPNRFYAYGVVARLALLAATIELQETDPDLLDERT,not failed
10,MNAEDFPTPDADVESVTPETLKSRIDDGESVTILDARMSGDYEEWHIDGENVESINVPYFHFLEDELDADIIADVPDDREVTVLCAKGGASEYVAGTLADRGYDVHHLEDGMNGWARIYETVEVTDYDGAGTLLQYQRPSSGCLGYLVYDDGEAAIIDPLRAFADRYFDDADELGVDLKYALDTHIHADHISGVRGLDAAGVEGVIPAAAVDRGVTYAAEQSSASPVSQARQDADDLTTAEDGDTFEVGDVTIETVATPGHTTGMTSYLVDDSLLATGDGLFIESVARPDLEEGDEGAPDAARMLYESLQERVLTLPDDTLIGGAHFSDAAEPANDGTYTAPIGQLVEEMDALTMDEDDFVETILADMPPRPANYEDIIATNLGQNTVDDEEAFTLELGPNNCAASQESLAGD,failed
11,MNAMLVGADTLGNIPDVLQNYGITIHRHLSGRNSSHQRKVDRLPAGTDLLILFTDFLGHNVMRHFRELAAEQQIRFIACRRSVCALKQSLTGAGMCEQPCAACPQRSGGDKPVKRKR,failed
